One block for each molecule: values may come before it.
Legend:
[1] = target: T1, recombinant human α5β1 integrin (rh-α5β1) (Homo sapiens, UniProt P05556+P08648); assay: Plate-based ELISA reactivity to rh-α5β1; assay type: binding; conditions: selected for further characterization among α5 specific hybridomas (28 selected)
T1 construct: purchased R&D Systems 3230-A5
Protocol: The 249 positive hybridoma supernatants selected as described in Example 1 were screened for reactivity to rh-α5β1 in a plate-based ELISA. Immulon4 HBX ELISA 96-well plates (Thermo Fisher Scientific, Waltham, MA, cat. no. 3855) were coated with rh-α5β1 (R&D Systems, Minneapolis, MN 55413, cat. no. 3230-A5), at 1 μg/mL in PBS supplemented with 0.5 mM MgCl2, MnCl2 and CaCl2 and incubated overnight at 4° C. Plates were washed 3 times with Wash Buffer (1× Tris Buffered Saline containing 0.05% Tween20), blocked with 2% BSA in 1×TBS (made from 10× Thermo Scientific Blocker BSA (10×) in TBS; Thermo Fisher Scientific, Waltham, MA, cat. no. 37520) for 2 hours at room temperature (RT) then incubated with hybridoma supernatants diluted 1:10 with Standard Diluent (2% BSA, 1×TBS, 0.05% Tween20). Following a 1 hour incubation at RT, wells were washed 3 times, incubated with biotinylated goat anti-mouse secondary antibody at 1:8000 dilution (Invitrogen, Carlsbad, CA, cat. no. 62-6540) for 1 hour, washed 3 times, then incubated for 30 minutes with poly-HRP Streptavidin (Thermo Fisher Scientific, Waltham, MA, cat. no. N200), washed 4 times, incubated with TMB (Thermo Fisher Scientific, Waltham, MA, cat. no. N301) for 5-10 minutes, followed by addition of ELISA Stop Solution (Invitrogen, Carlsbad, CA, cat. no. SS04). Absorbance 450 nm was measured.

[2] = target: rh-α5β1 (Homo sapiens, UniProt P05556+P08648); assay: Competition binding studies by Biolayer Interferometry (epitope groups); conditions: for Response (nm) / % Response: secondary mAb pre-mixed with 20 nM rh-α5β1; for % Response: relative to antigen alone; for epitope group: two epitope groups among 6 antibodies
rh-α5β1, sequence (P08648 42-894 limits assumed): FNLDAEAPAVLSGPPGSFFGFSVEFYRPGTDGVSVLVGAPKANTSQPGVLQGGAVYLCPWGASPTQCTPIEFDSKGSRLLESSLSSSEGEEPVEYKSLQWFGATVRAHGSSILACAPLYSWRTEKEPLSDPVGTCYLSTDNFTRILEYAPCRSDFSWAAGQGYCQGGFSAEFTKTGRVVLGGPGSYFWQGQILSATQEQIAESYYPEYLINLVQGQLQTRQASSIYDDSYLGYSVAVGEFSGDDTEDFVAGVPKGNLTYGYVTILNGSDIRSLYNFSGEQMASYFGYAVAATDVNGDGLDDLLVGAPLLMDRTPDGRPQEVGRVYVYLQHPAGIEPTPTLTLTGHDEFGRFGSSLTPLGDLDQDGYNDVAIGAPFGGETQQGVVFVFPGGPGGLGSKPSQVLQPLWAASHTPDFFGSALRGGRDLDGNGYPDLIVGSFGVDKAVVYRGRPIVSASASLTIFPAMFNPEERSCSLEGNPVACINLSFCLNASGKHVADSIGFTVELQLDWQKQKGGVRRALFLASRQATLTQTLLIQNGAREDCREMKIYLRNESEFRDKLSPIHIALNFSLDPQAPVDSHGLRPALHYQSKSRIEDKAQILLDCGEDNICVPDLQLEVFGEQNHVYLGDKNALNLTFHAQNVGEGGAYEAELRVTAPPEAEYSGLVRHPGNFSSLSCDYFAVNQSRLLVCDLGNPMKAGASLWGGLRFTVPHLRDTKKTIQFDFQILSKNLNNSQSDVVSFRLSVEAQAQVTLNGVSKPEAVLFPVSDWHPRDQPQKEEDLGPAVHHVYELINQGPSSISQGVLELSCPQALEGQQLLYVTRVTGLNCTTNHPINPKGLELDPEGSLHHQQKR
rh-α5β1, sequence (P08648 895-995 limits assumed): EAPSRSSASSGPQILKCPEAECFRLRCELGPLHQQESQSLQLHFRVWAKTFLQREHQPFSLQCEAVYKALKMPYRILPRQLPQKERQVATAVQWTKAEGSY
rh-α5β1, sequence (P05556 21-728 limits assumed): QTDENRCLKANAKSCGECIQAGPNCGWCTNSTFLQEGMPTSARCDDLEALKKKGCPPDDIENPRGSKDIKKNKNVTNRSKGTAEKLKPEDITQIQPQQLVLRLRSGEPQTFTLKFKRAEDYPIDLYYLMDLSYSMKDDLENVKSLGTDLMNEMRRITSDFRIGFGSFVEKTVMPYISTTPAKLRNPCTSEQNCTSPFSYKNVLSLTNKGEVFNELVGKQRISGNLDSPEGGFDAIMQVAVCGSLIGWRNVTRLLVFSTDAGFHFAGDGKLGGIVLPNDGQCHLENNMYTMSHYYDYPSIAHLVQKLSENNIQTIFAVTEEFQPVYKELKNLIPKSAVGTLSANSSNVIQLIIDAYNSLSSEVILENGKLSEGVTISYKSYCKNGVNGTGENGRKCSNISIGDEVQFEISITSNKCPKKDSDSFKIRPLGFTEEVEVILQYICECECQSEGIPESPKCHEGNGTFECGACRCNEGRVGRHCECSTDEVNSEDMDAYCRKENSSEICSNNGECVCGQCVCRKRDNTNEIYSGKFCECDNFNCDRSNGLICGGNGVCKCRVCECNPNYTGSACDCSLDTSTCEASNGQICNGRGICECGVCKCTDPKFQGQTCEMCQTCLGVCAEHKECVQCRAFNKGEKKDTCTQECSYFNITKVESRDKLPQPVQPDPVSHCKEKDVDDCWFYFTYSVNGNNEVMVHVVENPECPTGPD
Protocol: Epitope analysis via competition binding studies was performed using Biolayer Interferometry (BLI) on the 6 antibodies selected as described in Example 5. The anti-α5β1 FN blocking antibodies A2-7A05, C-14D12 and A-15B08 were immobilized on sensors and incubated with each of the other antibodies that had been preincubated with rh-α5β1, to determine whether this antibody-antigen association prevents or allows binding to the antibody on the sensor. The magnitude of observed binding (response) was compared to binding of antigen alone under the same conditions. If the overall response was greater than 120% of antigen binding alone, then the antibodies can pair with each other. If response was less than 80% of response of antigen binding alone, then the antibodies block each other. The protocol was as follows: preincubate the panel of antibodies with antigen (1 hr). Equilibrate the sensor (30 seconds (s))-->Load lead Ab on the sensor (700s)--->Quench (480s)--->Read baseline (480s)-->measure preincubated Ab+Ag association with loaded sensor (600s).

[3] = target: T2, recombinant human α5β1 integrin (rh-α5β1; R&D Systems, cat. no. 3230-A5) (human, UniProt P08648 42-995; P05556 21-728); assay: ELISA, coated rh-α5β1, supernatant 1:10
T2 construct: bought recombinant heterodimer
T2 sequence (P08648 42-995 limits assumed, form in doubt, chain 1 of 2): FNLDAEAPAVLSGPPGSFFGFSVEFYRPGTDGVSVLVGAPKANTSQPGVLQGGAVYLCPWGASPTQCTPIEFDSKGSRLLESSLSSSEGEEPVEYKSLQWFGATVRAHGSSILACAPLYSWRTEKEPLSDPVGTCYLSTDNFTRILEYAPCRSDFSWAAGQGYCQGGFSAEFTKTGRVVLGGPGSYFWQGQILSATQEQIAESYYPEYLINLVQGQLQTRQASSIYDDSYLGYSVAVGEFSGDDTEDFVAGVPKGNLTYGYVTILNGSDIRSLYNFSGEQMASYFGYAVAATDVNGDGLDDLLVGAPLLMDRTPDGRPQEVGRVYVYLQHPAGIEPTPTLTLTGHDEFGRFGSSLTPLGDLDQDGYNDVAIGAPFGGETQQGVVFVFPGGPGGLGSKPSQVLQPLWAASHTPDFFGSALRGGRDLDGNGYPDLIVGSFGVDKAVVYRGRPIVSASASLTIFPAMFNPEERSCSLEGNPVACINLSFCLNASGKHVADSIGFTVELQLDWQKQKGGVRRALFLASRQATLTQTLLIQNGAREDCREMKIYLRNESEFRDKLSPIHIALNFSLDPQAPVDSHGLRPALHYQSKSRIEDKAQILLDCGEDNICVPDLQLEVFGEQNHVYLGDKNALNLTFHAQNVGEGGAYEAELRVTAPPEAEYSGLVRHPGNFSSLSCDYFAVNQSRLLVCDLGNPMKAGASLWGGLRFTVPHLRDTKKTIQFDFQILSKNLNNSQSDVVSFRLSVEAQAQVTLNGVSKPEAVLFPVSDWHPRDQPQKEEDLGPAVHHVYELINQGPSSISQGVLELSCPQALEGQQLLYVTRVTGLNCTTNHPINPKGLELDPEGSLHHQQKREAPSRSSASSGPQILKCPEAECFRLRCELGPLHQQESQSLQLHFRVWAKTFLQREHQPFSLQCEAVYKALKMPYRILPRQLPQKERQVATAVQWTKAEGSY
T2 sequence (P05556 21-728 limits assumed, form in doubt, chain 2 of 2): as the sequence (P05556 21-728 limits assumed) above
Protocol: (§1) Plates were washed 3 times with Wash Buffer (1× Tris Buffered Saline containing 0.05% Tween20), blocked with 2% BSA in 1×TBS (made from 10× Thermo Scientific Blocker BSA (10×) in TBS; Thermo Fisher Scientific, Waltham, MA, cat. no. 37520) for 2 hours at room temperature (RT) then incubated with hybridoma supernatants diluted 1:10 with Standard Diluent (2% BSA, 1×TBS, 0.05% Tween20). […] Absorbance 450 nm was measured.

[4] = target: T3, purified recombinant human α5β1 integrin heterodimer, 6×His tagged (rh-α5β1); Acro Biosystems, cat. no. … (human, UniProt P08648 42-995; P05556 21-728); assay: BLI (Octet), supernatant mAb on anti-mouse IgG Fc sensor, 20 nM rh-α5β1
T3 construct: bought recombinant heterodimer; also called rh-α5β1-6×His tagged protein; His-tagged-α5β1
T3 sequence (P08648 42-995 limits assumed, form in doubt, chain 1 of 2): as the sequence (P08648 42-995 limits assumed, form in doubt, chain 1 of 2) above
T3 sequence (P05556 21-728 limits assumed, form in doubt, chain 2 of 2): as the sequence (P05556 21-728 limits assumed) above
Description: Anti-Mouse IgG Fc biosensors were used to load each clone supernatant. Assay steps were as follows: Sensor Check (30s)-->Load Ab (700s)-->Quench (480s)-->Baseline(480s)-->Ab Assoc. (600s)-->Dissoc. (600s).

[5] = target: T4, recombinant human α4β1 integrin (human, UniProt P13612 34-977; P05556 21-728); assay: ELISA, coated integrin, supernatant 1:10
T4 construct: bought recombinant heterodimer (R&D Systems cat. 5668-A4) coated on the plate; also called rh-α4β1
Protocol: as §1

[6] = target: T5, recombinant mouse α5β1 integrin (mouse, UniProt P11688 45-999; P09055 21-728); assay: ELISA, coated integrin, supernatant 1:10
T5 construct: bought recombinant heterodimer (R&D Systems cat. 7728-A5) coated on the plate; also called rm-α5β1
T5 sequence (P11688 45-999 limits assumed, form in doubt, chain 1 of 2): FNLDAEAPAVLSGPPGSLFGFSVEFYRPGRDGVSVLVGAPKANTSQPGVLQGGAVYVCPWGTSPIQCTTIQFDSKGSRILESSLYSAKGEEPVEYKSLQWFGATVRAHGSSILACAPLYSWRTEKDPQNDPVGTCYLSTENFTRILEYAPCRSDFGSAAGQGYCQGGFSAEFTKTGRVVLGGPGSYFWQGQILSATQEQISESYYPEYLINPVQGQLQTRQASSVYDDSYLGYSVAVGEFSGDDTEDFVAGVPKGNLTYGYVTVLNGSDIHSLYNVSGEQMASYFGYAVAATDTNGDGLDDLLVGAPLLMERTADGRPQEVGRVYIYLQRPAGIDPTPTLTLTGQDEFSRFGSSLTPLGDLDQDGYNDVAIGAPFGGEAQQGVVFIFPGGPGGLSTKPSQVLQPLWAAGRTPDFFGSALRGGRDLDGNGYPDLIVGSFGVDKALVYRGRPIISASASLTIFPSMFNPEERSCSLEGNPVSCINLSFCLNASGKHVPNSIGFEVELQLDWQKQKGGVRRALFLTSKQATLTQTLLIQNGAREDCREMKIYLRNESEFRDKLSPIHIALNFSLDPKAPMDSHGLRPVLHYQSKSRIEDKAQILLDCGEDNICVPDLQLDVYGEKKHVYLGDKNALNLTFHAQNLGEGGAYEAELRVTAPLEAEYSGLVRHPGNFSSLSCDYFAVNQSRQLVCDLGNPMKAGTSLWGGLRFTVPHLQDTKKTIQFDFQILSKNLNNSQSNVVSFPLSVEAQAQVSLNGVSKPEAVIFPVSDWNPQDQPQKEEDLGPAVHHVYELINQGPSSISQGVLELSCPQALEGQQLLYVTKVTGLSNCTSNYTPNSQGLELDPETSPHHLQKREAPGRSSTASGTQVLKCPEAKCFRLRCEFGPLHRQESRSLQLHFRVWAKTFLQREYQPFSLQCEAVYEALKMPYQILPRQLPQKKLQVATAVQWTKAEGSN
T5 sequence (P09055 21-728 limits assumed, form in doubt, chain 2 of 2): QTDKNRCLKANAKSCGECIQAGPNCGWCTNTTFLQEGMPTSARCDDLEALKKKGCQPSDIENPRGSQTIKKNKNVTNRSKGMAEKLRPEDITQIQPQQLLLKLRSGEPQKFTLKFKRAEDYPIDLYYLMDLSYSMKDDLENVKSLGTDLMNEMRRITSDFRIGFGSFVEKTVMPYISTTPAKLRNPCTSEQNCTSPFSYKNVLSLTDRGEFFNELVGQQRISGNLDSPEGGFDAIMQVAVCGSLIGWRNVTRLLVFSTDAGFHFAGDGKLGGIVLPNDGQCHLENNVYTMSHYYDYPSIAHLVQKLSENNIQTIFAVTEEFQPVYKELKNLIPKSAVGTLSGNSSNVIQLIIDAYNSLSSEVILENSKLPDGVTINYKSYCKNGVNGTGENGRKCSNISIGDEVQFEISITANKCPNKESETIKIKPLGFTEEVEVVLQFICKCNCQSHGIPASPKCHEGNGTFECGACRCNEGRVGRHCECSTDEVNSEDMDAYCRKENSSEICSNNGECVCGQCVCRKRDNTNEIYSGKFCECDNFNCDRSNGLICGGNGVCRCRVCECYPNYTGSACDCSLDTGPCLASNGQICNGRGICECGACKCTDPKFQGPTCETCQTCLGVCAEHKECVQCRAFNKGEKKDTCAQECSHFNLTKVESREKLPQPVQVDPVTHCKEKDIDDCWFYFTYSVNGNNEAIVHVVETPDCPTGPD
Protocol: as §1

[7] = target: T6, recombinant human α5β1 integrin (human, UniProt P08648 42-995; P05556 21-728); assay: ELISA, coated integrin, supernatant 1:10
T6 construct: also called rh-α5β1
T6 sequence (P08648 42-995 limits assumed, form in doubt, chain 1 of 2): as the sequence (P08648 42-995 limits assumed, form in doubt, chain 1 of 2) above
T6 sequence (P05556 21-728 limits assumed, form in doubt, chain 2 of 2): as the sequence (P05556 21-728 limits assumed) above
Protocol: as §1

T1 sequence (P08648 42-894 limits assumed): as the sequence (P08648 42-894 limits assumed) above
T1 sequence (P08648 895-995 limits assumed): as the sequence (P08648 895-995 limits assumed) above
T1 sequence (P05556 21-728 limits assumed): as the sequence (P05556 21-728 limits assumed) above

B2: A2-6C10 (antibody, V domains shown)
VH: QVQLKESGPGLVAPSQSLSITCTISGFSLTTYGVHWVRQPPGKGLEWLVVIWSDGSTTYNSALKSRLNITKDNSKSQVFLKMNSLQTDDTAMYYCVRHGGLLRRDAMDYWGQGTSVTVSS
VL: QIVLTQSPAIMSASLGERVTMTCTASSSVSSNSFHWYQQKPGSSPKLWLYSTSNLASGVPARFSGSGSGTSYSLTISSMEAEDAATYYCHQYLRSPPTFGGGTKLEIK
notes: mouse hybridoma antibody
- Absorbance 450 nm [3]: 2.01
- Kd [4]: 3.5 nM
- koff [4]: 0.000911 s⁻¹
- kon [4]: 260000 M⁻¹ s⁻¹

B5: A2-5D10: anti-α5β1 antibody, VH SEQ ID NO:51, VL SEQ ID NO:52 (antibody, V domains shown)
VH: QVQLKESGPGLVAPSQSLSITCTISGFSLTSYGVHWVRQPPGKGLEWLVVIWSDGSTTYNSTLKSRLSISKDNSKSQVFLKMNSLQTDDTAMYYCARHYDYDGDWFAYWGQGTLVTVSA
VL: QILLTQSPAIMSASLGERVTMTCTASSSVSSRCLHWYQQKPGSSPKLWIYSTSNLASGVPARFRGSGSGTSYSLTISSMEAEDAATYYCHQYYRSPPTFGGGTKLEIK
modifications: A2-5D10 VH Sequence; A2-5D10 VL Sequence
- Selected Human α5 Specific [1]: Yes
- binding of rh-α5β1 complexed with antibody to A2-7A05 on the sensor ([2]; antibody preincubated with rh-α5β1, A2-7A05 immobilized on sensor): able to bind
- Response (nm) ([2]; immobilized mAb A2-7A05): 0.17 nm
- % Response ([2]; immobilized mAb A2-7A05): 448.38%
- Response (nm) ([2]; immobilized mAb A-15B08): 0.22 nm
- % Response ([2]; immobilized mAb A-15B08): 106.82%
- Response (nm) ([2]; immobilized mAb C-14D12): 0.24 nm
- % Response ([2]; immobilized mAb C-14D12): 106.12%
- epitope group [2]: second group

B6: A2-8H11 (antibody, V domains shown)
VH: QVQLKESGPGLVAPSQSLSITCTISGFSLTTYGVHWVRQPPGKGLEWLVVIWSDGSTTYNSALKSRLNITKDNSKSQVFLKMNSLQTDDTAMYYCVRHGGLLRRDAMDYWGQGTSVTVSS
VL: QIVLTQSPAIMSASLGERVTMTCTASSSVSSNSFHWYQQKPGSSPKLWLYSTSNLASGVPARFSGSGSGTSYSLTISSMEAEDAATYYCHQYLRSPPTFGGGTKLEIK
notes: mouse hybridoma antibody
- Absorbance 450 nm [3]: 1.45
- Kd [4]: 4.81 nM
- koff [4]: 0.00139 s⁻¹
- kon [4]: 289000 M⁻¹ s⁻¹

The next lines start with the values.

- Selected Human α5 Specific [1]: Yes
- binding of rh-α5β1 complexed with antibody to A-15B08 on the sensor ([2]; antibody preincubated with rh-α5β1, A-15B08 immobilized on sensor): able to bind
- binding of rh-α5β1 complexed with antibody to C-14D12 on the sensor ([2]; antibody preincubated with rh-α5β1, C-14D12 immobilized on sensor): able to bind
- Response (nm) ([2]; immobilized mAb A2-7A05): −0.17 nm
- % Response ([2]; immobilized mAb A2-7A05): −472.70%
- Response (nm) ([2]; immobilized mAb A-15B08): 0.29 nm
- % Response ([2]; immobilized mAb A-15B08): 142.59%
- Response (nm) ([2]; immobilized mAb C-14D12): 0.30 nm
- % Response ([2]; immobilized mAb C-14D12): 133.09%
- epitope group [2]: one group
B1: A2-7F01: anti-α5β1 antibody, VH SEQ ID NO:91, VL SEQ ID NO:92 (antibody, V domains shown)
VH: QVQLQQPGAELVKPGASVKLSCKASGYTFTIYWINWVKQRPGQGLEWIGNIYPGSSSTNYNEKFKTKATLTVDTSSSTAYMQLSSLTSDDSAVYYCAITGTGGFAYWGQGTLVTVSA
VL: ENVLTQSPAIMSASLGEKVTMSCRASSSVNYMYWYQQKSDASPKLWIYFTSSLAPGVPTRFSGSGSGNSFSLTISSMEGEDAATYYCQQLTGSPFTFGSGTRLEIK
modifications: A2-7F01 VH Sequence; A2-7F01 VL Sequence

- Absorbance 450 nm [5]: 0.171 A450
- Absorbance 450 nm [6]: 0.17 A450
- Absorbance 450 nm [7]: 0.702 A450
B3: C-14D12 (antibody, V domains shown)
VH: QVQLKESGPDLVAPSQSLSITCTVSGFSLTDYGVHWVRQPPGKGLEWLVVIWSDGSTTYNSALKSRLSITKDTSKRQVFLKMNSLQTDDTAMYYCARHAPSFIRYGSRYDALDYWGQGTSVTVSS
VL: QIVLTQSPAIMSASLGERVTLTCTASSSVTSSFLHWYQQKPGSSPKLWIYSTSNLASGVPARFSGSGSGTSYSLTISSMEAEDAATYYCHQYHRSPPTFGGGTKLEIK
notes: mouse hybridoma supernatant in this assay

- Absorbance 450 nm [5]: 0.165 A450
- Absorbance 450 nm [6]: 0.0872 A450
- Absorbance 450 nm [7]: 0.805 A450
B4: C-8G11 (antibody, V domains shown)
VH: QVQLKESGPDLVAPSQSLSITCTVSGFSLTDYGVHWVRQPPGKGLEWLVVIWSDGSTTYNSALKSRLSITKDTSKRQVFLKMNSLQTDDTAMYYCARHAPSFIRYGSRYDALDYWGQGTSVTVSS
VL: QIVLTQSPAIMSASLGERVTLTCTASSSVTSSFLHWYQQKPGSSPKLWIYSTSNLASGVPARFSGSGSGTSYSLTISSMEAEDAATYYCHQYHRSPPTFGGGTKLEIK
notes: mouse hybridoma supernatant

- Absorbance 450 nm [3]: 1.91
- Kd [4]: 5.02 nM
- koff [4]: 0.00139 s⁻¹
- kon [4]: 277000 M⁻¹ s⁻¹
B7: A2-9A11 (antibody, V domains shown)
VH: QVQLKESGPGLVAPSQSLSITCTISGFSLTTYGVHWVRQPPGKGLEWLVVIWSDGSTTYNSALKSRLNITKDNSKSQVFLKMNSLQTDDTAMYYCVRHGGLLRRDAMDYWGQGTSVTVSS
VL: QIVLTQSPAIMSASLGERVTMTCTASSSVSSNSFHWYQQKPGSSPKLWLYSTSNLASGVPARFSGSGSGTSYSLTISSMEAEDAATYYCHQYLRSPPTFGGGTKLEIK
notes: mouse hybridoma antibody

From patent publication US20240279345A1, “ALPHA 5 BETA 1 INTEGRIN BINDING AGENTS AND USES THEREOF” (PASITHEA THERAPEUTICS CORP., priority 2021, published 2024)
